Experimental findings from patent US20110171233A1 (RIBOVAX BIOTECHNOLOGIES S A, published 2011) are described below.

Assay [1] addresses hCMV envelope glycoprotein B (gB) of hCMV strain AD169 (hCMV strain AD169, UniProt P06473 32-906). Nature of the assay: cell-based or functional assay.
For assay [2], the target named is hCMV envelope glycoprotein B (gB) of hCMV strain VR1814 (hCMV strain VR1814). Nature of the assay: cell-based or functional assay.
Assay [3] has as its target T1, recombinant autologous interstrain fusion antigen CG3 (hCMV strain AD169; hCMV strain Towne, UniProt P06473 27-84; P13201 27-84).
T1 construct: domain: gB Antigenic Domain 2 (AD2); Antigen of the commercial gB(AD2) ELISA (Biotest, Cat. No. 807035; Rothe M et al., 2001); also called CG3 antigen; gB(AD2)
Nature of the assay: ELISA of the subculture supernatant on the gB recombinant antigen (CG3).

B1: 8C10 antibody (antibody, V domains shown)
VH: EVQLVQSGAEVKKPGESLKISCKGSGYTFANYWIAWVRQMPGKGLEWMGIIYPGDSDTRYSPSFQGQVTISADKSFHTVYLQWSSLKASDTAIYFCASTSYYDFWSGYHRGREHYYYGMEVWGQGTTVIVSS
VL: TQSPATLSLSPGERVTLSCRASQSVYNYLAWYQQKPGQAPRLLIYDASNRATGIPARFSGSGSGTDFTLTISSLEPEDFAVYYCQLRRGTFGQGTKVEIKR
On to B1, for which, in assay [1], the “hCMV neutralizing activity, dose-response, HELF cells with hCMV strain AD169 (1,000 PFU/reaction), IC50” value stood at 0.82 µg/mL. Also, in assay [2], the “hCMV neutralizing activity, dose-response, HUVEC cells with hCMV strain VR1814 (1,000 PFU/reaction), IC50” value worked out at 0.67 µg/mL.

B2: 37B7 antibody (antibody, V domains shown)
VH: QVQLVQSGGEVKKPGASVKVSCKASGYTFTSSGINWVRQAPGQGLEWMGWINTYNGNTKYAQRLQGRVTMTTDTSTDTAYMELRSLRSDDTAVYYCARDGLNWGWGDYWGQGTLVTVSS
VL: TQSPSTLSASVGDRVIITCRASQSISSWLAWYQQKPGKAPKLLIYKASSLESGVPSRFSGSGSGTEFTLTISSLQPDDFASYYCQQCKGYPYTFGQGTKLEIKR
notes: also called antibody secreted by the 37B7 subculture
As for B2, the binding result in assay [3] is “no binding”.
